Assay results from article PMC6335422 (Nature Communications, 2019).
Where no end group is shown, it is not given here.

B1: mutant Mmi^W112A protein: full-length Mmi1 carrying W112A, expressed in S. pombe (protein)
chain: MSNTNFSTSRSSKSIPELPNLEALRSLWPPPSLNESGDTRSVWTTHTGEPVASSVLSTSGSNNFSSPLKRPAPESHDAPIGRRLMVDDPRLIKHGKYDFSRHCTDYGHSYEAPYFRSLRRESMLYHTSGSYPESQPPYSSYSTDAPHYYHAGSESSAYYDSRSRLHGIQPPPKRRTLSPPPRRLADPVVVGSSRYVEEEVYRRPPYTLASEVPSSASAYQAGYSSYPVRSSPQLSHEDTRHGIASSGSTRYPFVPANTRASHSPSLLEPYAHSLPSSVAPVGAYPEKSSYLLSNSSNDSASRKEKPKARASTPPPLNFSRASEHRNEKGERISMINPRVVLDENGISHRSRYFIMLCDNETAIAHAKKTSIWAVKKDSSKRISDAYKKASVYFIFVAQQTYNALGYAQVVSDLNSTELPFWSDSSHAGGVRIKWIKTCNLFSAEISEIVSHMDHGSEARDGMEMMYDEGSRLCTLINYAIMKRIGRDR
modifications: left off: FLAG, end not stated, kept
notes: full-length Mmi1 carrying W112A, expressed in S. pombe

Key:
Erh1 (Erh1wt) = molecular target: T1, Erh1 (Erh1wt) (Schizosaccharomyces pombe, UniProt G2TRN4); experiment: Isothermal titration calorimetry (ITC), SUMO-tagged Mmi1 peptides titrated into wild-type Erh1; assay type: binding, S. pombe; settings: Erh1wt, ITC, 293 K, 20 mM Tris-HCl pH 7.5, 150 mM NaCl, SUMO-tagged Mmi1 peptide, single-site model
T1 construct: A region of Erh1 (residues 1–104) was amplified by PCR; made in house; host or cells: Escherichia coli BL21 (Gold)
T1 sequence (G2TRN4 1-104): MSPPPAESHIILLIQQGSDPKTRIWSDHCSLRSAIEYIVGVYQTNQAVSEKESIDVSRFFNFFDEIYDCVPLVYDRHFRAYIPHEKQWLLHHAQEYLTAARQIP
Method: (§1) The titration protocol consisted of a single initial injection of 1 µl, followed by 19 injections of 2 µl SUMO-tagged Mmi1 peptides into the sample cell containing Erh1 protein. Thermodynamic data were analyzed with a single-site binding model using MicroCal PEAQ-ITC Analysis Software provided by the manufacturer.

Erh1 R23A = molecular target: T2, Erh1 R23A (Schizosaccharomyces pombe, UniProt G2TRN4, R23A); experiment: ITC, Mmi1 peptide titrated into Erh1 R23A; assay type: binding, S. pombe
T2 construct: A region of Erh1 (residues 1–104) was amplified by PCR; made in house; host or cells: Escherichia coli BL21 (Gold)
Method: as §1

Erh1 D27A = molecular target: T3, Erh1 D27A (Schizosaccharomyces pombe, UniProt G2TRN4, D27A); experiment: ITC, Mmi1 peptide titrated into Erh1 D27A; assay type: binding, S. pombe
T3 construct: A region of Erh1 (residues 1–104) was amplified by PCR; made in house; host or cells: Escherichia coli BL21 (Gold)
Method: as §1

Erh1 D68A = molecular target: T4, Erh1 D68A (Schizosaccharomyces pombe, UniProt G2TRN4, D68A); experiment: ITC, Mmi1 peptide titrated into Erh1 D68A; assay type: binding, S. pombe
T4 construct: A region of Erh1 (residues 1–104) was amplified by PCR; made in house; host or cells: Escherichia coli BL21 (Gold)
Method: as §1

Erh1 E85A = molecular target: T5, Erh1 E85A (Schizosaccharomyces pombe, UniProt G2TRN4, E85A); experiment: ITC, Mmi1 peptide titrated into Erh1 E85A; assay type: binding, S. pombe; settings: 293 K, pH 7.5
T5 construct: A region of Erh1 (residues 1–104) was amplified by PCR; made in house; host or cells: Escherichia coli BL21 (Gold)
Method: as §1

Erh1 = experiment: GST pull-down of Erh1 with GST-tagged Mmi1 fragments, Coomassie; assay type: binding, S. pombe; settings: GST-Mmi1 fusion incubated with Erh1, glutathione-agarose, SDS-PAGE
Excerpt: Fig. 1 Mmi1 interacts with Erh1 in a 2:2 stoichiometry. a Shown is a schematic representation of the domain architecture of Mmi1. The disorder score from DISOPRED3 Server[62] and the conservation score are shown below. The conservation score is generated by a Protein Residue Conservation Prediction Server[63] from the sequence alignment of Mmi1 orthologues from S. pombe, S. cryophilus, S. octosporus, and S. japonicus. b–d Interactions of GST tagged Mmi1 peptides (GST-Mmi1) with Erh1 visualized by Coomassie blue staining. The indicated GST-Mmi1 fusion proteins or GST alone were incubated with Erh1. The complexes were collected with glutathione-agarose resin and bound proteins were eluted and then subjected to SDS-PAGE. GST or GST-Mmi1 fusion proteins without Erh1 are shown as a negative control. Source data are provided as a Source Data file. e The raw ITC titration data of Erh1 with SUMO tagged Mmi1^95–122 and its fitting curve are shown. KD dissociation constant, DP differential power, N binding stoichiometry, ΔH binding enthalpy. f ITC fitting curves of Erh1 using SUMO tagged Mmi1^95–122 (magenta), Mmi1^106–122 (blue) and Mmi1^95–111 (green) are shown. g Size-exclusion analysis of Erh1 (magenta) and Erh1-Mmi1^95–122 (blue). Marker sizes are 62.9 KDa (Albumin), 46.7 KDa (Ovalbumin), 20.3 KDa (Chymotrypsinogen), 14.6 KDa (Ribonuclease A). Also shown are theoretical monomer sizes (kDa) of Erh1 protein and Mmi1^95–122 peptide TEXT PRINTED IN THE PICTURE: (e) Mmi1^95–122 - Erh1: KD (μM) 0.83±0.19; N (sites) 0.90±0.01; ΔH (kJ per mol) −106±3.02 | (f) Mmi1^95–122: Erh1 KD (μM): 0.83±0.19 | (f) Mmi1^106–122: Erh1 KD (μM): 9.94±1.19 | (f) Mmi1^95–111: Erh1 KD (μM): no binding | (g) Erh1: 13.2 kDa | (g) Mmi1^95–122: 3.5 kDa
A region of Erh1 (residues 1–104) was amplified by PCR from the S. pombe genome and cloned into a modified pET28a (Novagen) vector without a thrombin protease cleavage site (p28a). GST-Mmi1^YTH was sub-cloned from a Mmi1^YTH-p28a construct to a modified PGex-4T1 vector with a TEV protease cleavage site (Tev4T1). […]

[1] = assay type: physicochemical; settings: pH 7.5
Erh1-Mmi1 interaction = experiment: Co-immunoprecipitation of Erh1-GFP and FLAG-Mmi1 from yeast cells; assay type: cell-based, S. pombe; settings: FLAG-Mmi1 WT replaced with mutant; Erh1-GFP; YEA medium, 32 °C
Method: Cells were grown to mid-log phase in rich YEA medium at 32 °C, harvested, and flash-frozen in liquid nitrogen prior to extract preparations. Extracts prepared from yeast cells expressing epitope tagged proteins under the control of native gene promoters were used for immunoprecipitations and Western blot analyses as described. Total protein extracts for western blotting analyses were prepared by trichloroacetic acid (TCA) precipitation. Briefly, cells were lysed using glass beads in 20% TCA buffer. Next, lysates were diluted using 5% TCA buffer and total protein pellets were concentrated by centrifugation at 21,000×g for 5 min. Precipitated protein was dissolved in sodium dodecyl sulfate (SDS) sample buffer prior to resolution in a polyacrylamide gel. For immunoprecipitation experiments, cells were lysed using glass beads in 2X HC lysis buffer (300 mM HEPES buffer pH 7.6, 100 mM KCl, 2 mM EDTA, 0.2% NP-40, and 0.2 mM DTT) containing protease inhibitor cocktail (11697498001, Roche) and 2 mM PMSF. Lysate cleared of cellular debris was incubated with antibody-conjugated beads for immunoprecipitation. […]

T2 sequence (G2TRN4 whole entry R23A, the tested form may be a part): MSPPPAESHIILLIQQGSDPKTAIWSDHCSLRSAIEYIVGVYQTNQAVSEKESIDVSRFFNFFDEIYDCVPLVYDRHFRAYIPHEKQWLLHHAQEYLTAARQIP
T3 sequence (G2TRN4 whole entry D27A, the tested form may be a part): as the sequence (G2TRN4 whole entry R23A, the tested form may be a part) above, with A23R, D27A counted along it
T4 sequence (G2TRN4 whole entry D68A, the tested form may be a part): as the sequence (G2TRN4 whole entry R23A, the tested form may be a part) above, with A23R, D68A counted along it
T5 sequence (G2TRN4 whole entry E85A, the tested form may be a part): as the sequence (G2TRN4 whole entry R23A, the tested form may be a part) above, with A23R, E85A counted along it

Molecule | ΔH (binding enthalpy) (Erh1 (Erh1wt)) | ΔH (binding enthalpy) (Erh1 (Erh1wt); listed as Mmi195-11 2) | binding affinity (in words) (Erh1 R23A; Erh1 Arg23 substituted with alanine) | ΔH (binding enthalpy) (Erh1 R23A; Erh1 R23A, 293 K, pH 7.5) | binding affinity (in words) (Erh1 D27A; Erh1 Asp27 substituted with alanine) | ΔH (binding enthalpy) (Erh1 D27A; Erh1 D27A, 293 K, pH 7.5) | ΔH (binding enthalpy) (Erh1 D68A; Erh1 D68A, 293 K, pH 7.5) | affinity (in words) (Erh1 D68A; Erh1^D68A mutant) | ΔH (binding enthalpy) (Erh1 E85A) | interaction with Erh1 (GST pull-down) (Erh1) | solubility of synthesized peptide [1] | Erh1-Mmi1 interaction (co-immunoprecipitation) (Erh1-Mmi1 interaction)
Mmi1^95–122: Mmi1 fragment, residues 95–122, Erh1-interacting domain (EID) ({SUMO}-GKYDFSRHCTDYGHSYEWPYFRSLRRES; not fully specified) | −106±3.02 kJ per mol | -106±3.02 kJ per mol | significantly reduced the binding affinity | -24.2±4.87 kJ per mol | significantly reduced the binding affinity | -58.8±1.58 kJ per mol | -47.6±1.30 kJ per mol | reduced | -81.9±1.70 kJ per mol | sufficient for interaction | could not be dissolved in the interaction buffer | 
B1 |  |  |  |  |  |  |  |  |  |  |  | drastically diminished the Erh1-Mmi1 interaction
